Source: article PMC10104521 (Proceedings of the National Academy of Sciences of the …, 2023)
Each block holds one binder with its values, some of them ahead of it.

Tests used:
[1] = molecular target: T1, geranylgeranylated GBP5 (guanylate-binding protein 5) (human), Q96PP8; experiment: dynamic light scattering; details: remark: other sources report otherwise
T1 chain: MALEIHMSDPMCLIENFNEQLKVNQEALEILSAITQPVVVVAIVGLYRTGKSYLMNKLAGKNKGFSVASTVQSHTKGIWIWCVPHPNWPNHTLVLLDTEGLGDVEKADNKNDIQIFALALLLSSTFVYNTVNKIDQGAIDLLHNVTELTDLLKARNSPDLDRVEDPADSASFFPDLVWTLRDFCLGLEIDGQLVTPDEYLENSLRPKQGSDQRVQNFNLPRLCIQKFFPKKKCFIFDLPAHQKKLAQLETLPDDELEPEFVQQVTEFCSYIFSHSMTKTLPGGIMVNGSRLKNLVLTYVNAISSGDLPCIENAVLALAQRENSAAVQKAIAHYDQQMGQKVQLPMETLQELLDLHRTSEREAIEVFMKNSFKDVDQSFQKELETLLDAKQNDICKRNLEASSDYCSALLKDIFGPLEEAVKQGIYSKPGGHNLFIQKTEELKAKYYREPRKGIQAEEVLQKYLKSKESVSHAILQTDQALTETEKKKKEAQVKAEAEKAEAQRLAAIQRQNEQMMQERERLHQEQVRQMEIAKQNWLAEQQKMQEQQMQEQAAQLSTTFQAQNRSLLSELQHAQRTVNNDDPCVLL

[2] = molecular target: T2, nongeranylgeranylated GBP5 (human), Q96PP8; experiment: dynamic light scattering; details: remark: other sources report otherwise
T2 chain: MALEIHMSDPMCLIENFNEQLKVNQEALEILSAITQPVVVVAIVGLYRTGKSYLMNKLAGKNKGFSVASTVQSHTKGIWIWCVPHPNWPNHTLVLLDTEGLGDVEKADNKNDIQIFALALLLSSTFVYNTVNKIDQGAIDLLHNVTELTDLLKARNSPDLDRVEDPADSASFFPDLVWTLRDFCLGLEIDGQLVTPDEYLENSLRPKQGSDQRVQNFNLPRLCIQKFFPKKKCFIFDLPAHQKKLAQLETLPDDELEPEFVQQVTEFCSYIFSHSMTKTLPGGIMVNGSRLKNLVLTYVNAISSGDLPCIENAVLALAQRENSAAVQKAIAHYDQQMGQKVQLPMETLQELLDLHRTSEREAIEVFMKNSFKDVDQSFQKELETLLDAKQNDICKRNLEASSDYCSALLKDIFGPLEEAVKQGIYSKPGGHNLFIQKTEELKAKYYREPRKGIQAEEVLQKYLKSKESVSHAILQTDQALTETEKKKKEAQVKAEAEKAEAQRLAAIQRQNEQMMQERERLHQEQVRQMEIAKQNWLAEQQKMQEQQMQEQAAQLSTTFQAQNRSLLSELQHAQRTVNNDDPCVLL

[3] = molecular target: T3, farnesylated GBP1 (guanylate-binding protein 1) (human, UniProt P32455 1-592, C-terminal farnesyl moiety); experiment: UV-absorbance-based light scattering
T3 sequence: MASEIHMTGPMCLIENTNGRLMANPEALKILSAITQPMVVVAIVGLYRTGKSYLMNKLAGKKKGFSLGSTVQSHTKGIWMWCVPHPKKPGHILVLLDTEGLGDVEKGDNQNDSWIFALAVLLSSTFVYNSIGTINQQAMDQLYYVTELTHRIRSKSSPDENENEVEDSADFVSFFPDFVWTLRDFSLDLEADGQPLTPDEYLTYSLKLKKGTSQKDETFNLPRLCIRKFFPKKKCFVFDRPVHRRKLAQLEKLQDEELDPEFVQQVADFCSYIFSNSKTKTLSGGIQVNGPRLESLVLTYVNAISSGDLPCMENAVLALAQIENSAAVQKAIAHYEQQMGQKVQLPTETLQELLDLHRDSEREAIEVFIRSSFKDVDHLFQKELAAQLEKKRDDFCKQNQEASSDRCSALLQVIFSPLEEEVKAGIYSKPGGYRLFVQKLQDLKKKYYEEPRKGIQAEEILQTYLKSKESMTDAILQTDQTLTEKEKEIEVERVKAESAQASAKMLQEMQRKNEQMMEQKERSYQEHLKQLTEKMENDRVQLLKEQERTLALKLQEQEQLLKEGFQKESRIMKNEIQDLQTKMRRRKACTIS

[4] = molecular target: T4, nonfarnesylated GBP1 (human), P32455; experiment: dynamic light scattering; details: remark: other sources report otherwise
T4 chain: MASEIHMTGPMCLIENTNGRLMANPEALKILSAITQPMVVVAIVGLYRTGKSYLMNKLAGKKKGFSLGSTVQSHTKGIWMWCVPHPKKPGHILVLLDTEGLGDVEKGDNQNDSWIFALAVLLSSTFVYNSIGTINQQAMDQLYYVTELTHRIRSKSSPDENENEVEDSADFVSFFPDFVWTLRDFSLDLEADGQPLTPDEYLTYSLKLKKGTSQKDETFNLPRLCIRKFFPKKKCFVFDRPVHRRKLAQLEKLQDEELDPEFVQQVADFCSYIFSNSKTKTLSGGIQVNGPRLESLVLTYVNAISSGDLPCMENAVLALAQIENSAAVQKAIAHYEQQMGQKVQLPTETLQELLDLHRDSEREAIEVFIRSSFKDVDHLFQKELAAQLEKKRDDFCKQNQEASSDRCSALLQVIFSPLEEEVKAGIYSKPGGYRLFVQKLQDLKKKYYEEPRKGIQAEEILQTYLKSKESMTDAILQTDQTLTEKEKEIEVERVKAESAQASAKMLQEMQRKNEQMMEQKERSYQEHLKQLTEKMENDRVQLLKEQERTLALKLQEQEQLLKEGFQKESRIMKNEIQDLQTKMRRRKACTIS

dynamic light scattering = molecular target: the molecule itself; experiment: dynamic light scattering

stoichiometry N [2]: 2
B2: nongeranylgeranylated GBP5, Q96PP8 1-586 (natural protein)
chain: MALEIHMSDPMCLIENFNEQLKVNQEALEILSAITQPVVVVAIVGLYRTGKSYLMNKLAGKNKGFSVASTVQSHTKGIWIWCVPHPNWPNHTLVLLDTEGLGDVEKADNKNDIQIFALALLLSSTFVYNTVNKIDQGAIDLLHNVTELTDLLKARNSPDLDRVEDPADSASFFPDLVWTLRDFCLGLEIDGQLVTPDEYLENSLRPKQGSDQRVQNFNLPRLCIQKFFPKKKCFIFDLPAHQKKLAQLETLPDDELEPEFVQQVTEFCSYIFSHSMTKTLPGGIMVNGSRLKNLVLTYVNAISSGDLPCIENAVLALAQRENSAAVQKAIAHYDQQMGQKVQLPMETLQELLDLHRTSEREAIEVFMKNSFKDVDQSFQKELETLLDAKQNDICKRNLEASSDYCSALLKDIFGPLEEAVKQGIYSKPGGHNLFIQKTEELKAKYYREPRKGIQAEEVLQKYLKSKESVSHAILQTDQALTETEKKKKEAQVKAEAEKAEAQRLAAIQRQNEQMMQERERLHQEQVRQMEIAKQNWLAEQQKMQEQQMQEQAAQLSTTFQAQNRSLLSELQHAQRTVNNDDPCVLL

stoichiometry N [4]: 2
B4: nonfarnesylated GBP1, P32455 1-592 (natural protein)
chain: MASEIHMTGPMCLIENTNGRLMANPEALKILSAITQPMVVVAIVGLYRTGKSYLMNKLAGKKKGFSLGSTVQSHTKGIWMWCVPHPKKPGHILVLLDTEGLGDVEKGDNQNDSWIFALAVLLSSTFVYNSIGTINQQAMDQLYYVTELTHRIRSKSSPDENENEVEDSADFVSFFPDFVWTLRDFSLDLEADGQPLTPDEYLTYSLKLKKGTSQKDETFNLPRLCIRKFFPKKKCFVFDRPVHRRKLAQLEKLQDEELDPEFVQQVADFCSYIFSNSKTKTLSGGIQVNGPRLESLVLTYVNAISSGDLPCMENAVLALAQIENSAAVQKAIAHYEQQMGQKVQLPTETLQELLDLHRDSEREAIEVFIRSSFKDVDHLFQKELAAQLEKKRDDFCKQNQEASSDRCSALLQVIFSPLEEEVKAGIYSKPGGYRLFVQKLQDLKKKYYEEPRKGIQAEEILQTYLKSKESMTDAILQTDQTLTEKEKEIEVERVKAESAQASAKMLQEMQRKNEQMMEQKERSYQEHLKQLTEKMENDRVQLLKEQERTLALKLQEQEQLLKEGFQKESRIMKNEIQDLQTKMRRRKACTIS

The next lines start with the binder.

B1: geranylgeranylated GBP5 (guanylate-binding protein 5), Q96PP8 1-586 (natural protein)
chain: MALEIHMSDPMCLIENFNEQLKVNQEALEILSAITQPVVVVAIVGLYRTGKSYLMNKLAGKNKGFSVASTVQSHTKGIWIWCVPHPNWPNHTLVLLDTEGLGDVEKADNKNDIQIFALALLLSSTFVYNTVNKIDQGAIDLLHNVTELTDLLKARNSPDLDRVEDPADSASFFPDLVWTLRDFCLGLEIDGQLVTPDEYLENSLRPKQGSDQRVQNFNLPRLCIQKFFPKKKCFIFDLPAHQKKLAQLETLPDDELEPEFVQQVTEFCSYIFSHSMTKTLPGGIMVNGSRLKNLVLTYVNAISSGDLPCIENAVLALAQRENSAAVQKAIAHYDQQMGQKVQLPMETLQELLDLHRTSEREAIEVFMKNSFKDVDQSFQKELETLLDAKQNDICKRNLEASSDYCSALLKDIFGPLEEAVKQGIYSKPGGHNLFIQKTEELKAKYYREPRKGIQAEEVLQKYLKSKESVSHAILQTDQALTETEKKKKEAQVKAEAEKAEAQRLAAIQRQNEQMMQERERLHQEQVRQMEIAKQNWLAEQQKMQEQQMQEQAAQLSTTFQAQNRSLLSELQHAQRTVNNDDPCVLL
modifications: here or on the partner: C-terminal geranylgeranyl moiety; C-terminal geranylgeranyl moiety
stoichiometry N [1]: 2

B3: geranylgeranylated GBP5 (guanylate-binding protein 5) (natural protein, human, UniProt Q96PP8 1-586, looked up)
chain: MALEIHMSDPMCLIENFNEQLKVNQEALEILSAITQPVVVVAIVGLYRTGKSYLMNKLAGKNKGFSVASTVQSHTKGIWIWCVPHPNWPNHTLVLLDTEGLGDVEKADNKNDIQIFALALLLSSTFVYNTVNKIDQGAIDLLHNVTELTDLLKARNSPDLDRVEDPADSASFFPDLVWTLRDFCLGLEIDGQLVTPDEYLENSLRPKQGSDQRVQNFNLPRLCIQKFFPKKKCFIFDLPAHQKKLAQLETLPDDELEPEFVQQVTEFCSYIFSHSMTKTLPGGIMVNGSRLKNLVLTYVNAISSGDLPCIENAVLALAQRENSAAVQKAIAHYDQQMGQKVQLPMETLQELLDLHRTSEREAIEVFMKNSFKDVDQSFQKELETLLDAKQNDICKRNLEASSDYCSALLKDIFGPLEEAVKQGIYSKPGGHNLFIQKTEELKAKYYREPRKGIQAEEVLQKYLKSKESVSHAILQTDQALTETEKKKKEAQVKAEAEKAEAQRLAAIQRQNEQMMQERERLHQEQVRQMEIAKQNWLAEQQKMQEQQMQEQAAQLSTTFQAQNRSLLSELQHAQRTVNNDDPCVLL
modifications: C-terminal geranylgeranyl moiety
binding result [3]: binds

B5: geranylgeranylated GBP2 (guanylate-binding protein 2) (natural protein, human, UniProt P32456 1-591, looked up)
chain: MAPEINLPGPMSLIDNTKGQLVVNPEALKILSAITQPVVVVAIVGLYRTGKSYLMNKLAGKKNGFSLGSTVKSHTKGIWMWCVPHPKKPEHTLVLLDTEGLGDIEKGDNENDSWIFALAILLSSTFVYNSMGTINQQAMDQLHYVTELTDRIKANSSPGNNSVDDSADFVSFFPAFVWTLRDFTLELEVDGEPITADDYLELSLKLRKGTDKKSKSFNDPRLCIRKFFPKRKCFVFDWPAPKKYLAHLEQLKEEELNPDFIEQVAEFCSYILSHSNVKTLSGGIPVNGPRLESLVLTYVNAISSGDLPCMENAVLALAQIENSAAVEKAIAHYEQQMGQKVQLPTETLQELLDLHRDSEREAIEVFMKNSFKDVDQMFQRKLGAQLEARRDDFCKQNSKASSDCCMALLQDIFGPLEEDVKQGTFSKPGGYRLFTQKLQELKNKYYQVPRKGIQAKEVLKKYLESKEDVADALLQTDQSLSEKEKAIEVERIKAESAEAAKKMLEEIQKKNEEMMEQKEKSYQEHVKQLTEKMERDRAQLMAEQEKTLALKLQEQERLLKEGFENESKRLQKDIWDIQMRSKSLEPICNIL
modifications: C-terminal geranylgeranyl moiety
binding result (dynamic light scattering): binds | binding result [3]: binds

B6: nongeranylgeranylated GBP2 (natural protein, human, UniProt P32456 1-591, looked up)
chain: MAPEINLPGPMSLIDNTKGQLVVNPEALKILSAITQPVVVVAIVGLYRTGKSYLMNKLAGKKNGFSLGSTVKSHTKGIWMWCVPHPKKPEHTLVLLDTEGLGDIEKGDNENDSWIFALAILLSSTFVYNSMGTINQQAMDQLHYVTELTDRIKANSSPGNNSVDDSADFVSFFPAFVWTLRDFTLELEVDGEPITADDYLELSLKLRKGTDKKSKSFNDPRLCIRKFFPKRKCFVFDWPAPKKYLAHLEQLKEEELNPDFIEQVAEFCSYILSHSNVKTLSGGIPVNGPRLESLVLTYVNAISSGDLPCMENAVLALAQIENSAAVEKAIAHYEQQMGQKVQLPTETLQELLDLHRDSEREAIEVFMKNSFKDVDQMFQRKLGAQLEARRDDFCKQNSKASSDCCMALLQDIFGPLEEDVKQGTFSKPGGYRLFTQKLQELKNKYYQVPRKGIQAKEVLKKYLESKEDVADALLQTDQSLSEKEKAIEVERIKAESAEAAKKMLEEIQKKNEEMMEQKEKSYQEHVKQLTEKMERDRAQLMAEQEKTLALKLQEQERLLKEGFENESKRLQKDIWDIQMRSKSLEPICNIL
stoichiometry N (dynamic light scattering): 2
